These results are taken from patent US20260001928A1 (CORTERIA PHARMACEUTICALS, priority 2022, published 2026).

*1 amine or outer side, *2 acyl side, *3 side chain or, on linkers, in order; H or OH if unused. Where no end group is shown, it is not given here. Side-chain parts run from the residue outwards. [ ]: non-standard residue; d: D form. The star is where a group is joined. C18 diacid = O=C(O)CCCCCCCCCCCCCCCCC(=O)*; C16 diacid = O=C(O)CCCCCCCCCCCCCCC(=O)*; γGlu = O=C(O)[C@H](CCC(=O)[*:2])N[*:1]; NMeI = CC[C@H](C)[C@H](NC)C(=O)O; AEEA = NCCOCCOCC(=O)O Some results are limits rather than exact numbers.

Assay [1] has as its target human corticotropin-releasing factor 2a (CRF2a receptor) (human), Q13324. In words: cell-based or functional assay.
Another assay has as its target T1, CRF1R receptor (UniProt P34998 24-415, limits assumed).
T1 sequence (looked up): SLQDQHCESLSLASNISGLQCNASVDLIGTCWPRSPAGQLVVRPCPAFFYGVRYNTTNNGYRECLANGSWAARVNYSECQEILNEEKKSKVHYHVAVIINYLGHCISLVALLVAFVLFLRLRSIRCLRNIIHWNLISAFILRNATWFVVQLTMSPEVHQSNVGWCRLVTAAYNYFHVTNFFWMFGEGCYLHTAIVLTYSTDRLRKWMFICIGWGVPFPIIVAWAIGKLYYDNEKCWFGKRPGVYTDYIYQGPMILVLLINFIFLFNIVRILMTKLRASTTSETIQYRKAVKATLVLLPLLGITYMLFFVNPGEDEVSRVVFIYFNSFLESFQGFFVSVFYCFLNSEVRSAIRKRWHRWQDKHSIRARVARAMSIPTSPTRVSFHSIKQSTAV
In words: cell-based or functional assay.

Sequence of human corticotropin-releasing factor 2a (CRF2a receptor) (human), Q13324 (Q13324 20-411): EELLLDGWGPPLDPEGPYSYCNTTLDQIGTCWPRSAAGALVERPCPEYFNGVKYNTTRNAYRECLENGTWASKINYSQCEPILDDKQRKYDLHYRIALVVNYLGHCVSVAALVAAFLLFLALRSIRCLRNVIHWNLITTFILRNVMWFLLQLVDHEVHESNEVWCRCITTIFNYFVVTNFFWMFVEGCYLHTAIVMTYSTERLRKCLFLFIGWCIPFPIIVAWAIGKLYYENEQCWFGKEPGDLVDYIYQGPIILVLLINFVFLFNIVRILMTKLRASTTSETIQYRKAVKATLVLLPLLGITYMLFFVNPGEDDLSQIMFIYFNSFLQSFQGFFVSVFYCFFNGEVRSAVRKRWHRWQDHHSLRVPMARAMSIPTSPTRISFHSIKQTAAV

B1: SEQ ID NO 116 (peptide)
peptide: [NMeI]VLSLD[dV]PIKLK([AEEA-AEEA-γGlu-C18 diacid])KILLEQEKQKKQREQAETNEQILAQV-NH2
modifications: N-terminus assumed
SMILES: CC[C@H](C)[C@H](NC)C(=O)N[C@H](C(=O)N[C@@H](CC(C)C)C(=O)N[C@@H](CO)C(=O)N[C@@H](CC(C)C)C(=O)N[C@@H](CC(=O)O)C(=O)N[C@@H](C(=O)N1CCC[C@H]1C(=O)N[C@H](C(=O)N[C@@H](CCCCN)C(=O)N[C@@H](CC(C)C)C(=O)N[C@@H](CCCCNC(=O)COCCOCCNC(=O)COCCOCCNC(=O)CC[C@H](NC(=O)CCCCCCCCCCCCCCCCC(=O)O)C(=O)O)C(=O)N[C@@H](CCCCN)C(=O)N[C@H](C(=O)N[C@@H](CC(C)C)C(=O)N[C@@H](CC(C)C)C(=O)N[C@@H](CCC(=O)O)C(=O)N[C@@H](CCC(N)=O)C(=O)N[C@@H](CCC(=O)O)C(=O)N[C@@H](CCCCN)C(=O)N[C@@H](CCC(N)=O)C(=O)N[C@@H](CCCCN)C(=O)N[C@@H](CCCCN)C(=O)N[C@@H](CCC(N)=O)C(=O)N[C@@H](CCCNC(=N)N)C(=O)N[C@@H](CCC(=O)O)C(=O)N[C@@H](CCC(N)=O)C(=O)N[C@@H](C)C(=O)N[C@@H](CCC(=O)O)C(=O)N[C@H](C(=O)N[C@@H](CC(N)=O)C(=O)N[C@@H](CCC(=O)O)C(=O)N[C@@H](CCC(N)=O)C(=O)N[C@H](C(=O)N[C@@H](CC(C)C)C(=O)N[C@@H](C)C(=O)N[C@@H](CCC(N)=O)C(=O)N[C@H](C(N)=O)C(C)C)[C@@H](C)CC)[C@@H](C)O)[C@@H](C)CC)[C@@H](C)CC)C(C)C)C(C)C
In turn, B1 showed an EC50 [nM] (cAMP) in assay [1] of 0.37 nM. For the same molecule, the “Emax (% I)” value with CRF1R receptor was determined as 0%.

B2: SEQ ID NO 149 (peptide)
peptide: IVLSLDVPIKLK([AEEA-AEEA-γGlu-C18 diacid])KILLEQEKQKKQREQAETNKQILAQV-NH2
modifications: not fully specified (residue 7); printed as IVLSLDVPIKLK*KILLEQEKQKKQREQAETNKQILAQV-NH2
In the case of B2, in assay [1], the EC50 [nM] (cAMP) came to 0.44 nM. For the same molecule, in the assay with CRF1R receptor, the “EC50” value is more than 250 nM and the “Emax (% I)” value is 4%.

B3: SEQ ID NO 147 (peptide)
peptide: H-IVLSLD[dV]PIKLK([γGlu-γGlu-C16 diacid])QILLKQERQKKQREQAEKNKQILEQV-NH2
SMILES: CC[C@H](C)[C@H](N)C(=O)N[C@H](C(=O)N[C@@H](CC(C)C)C(=O)N[C@@H](CO)C(=O)N[C@@H](CC(C)C)C(=O)N[C@@H](CC(=O)O)C(=O)N[C@@H](C(=O)N1CCC[C@H]1C(=O)N[C@H](C(=O)N[C@@H](CCCCN)C(=O)N[C@@H](CC(C)C)C(=O)N[C@@H](CCCCNC(=O)CC[C@H](NC(=O)CC[C@H](NC(=O)CCCCCCCCCCCCCCC(=O)O)C(=O)O)C(=O)O)C(=O)N[C@@H](CCC(N)=O)C(=O)N[C@H](C(=O)N[C@@H](CC(C)C)C(=O)N[C@@H](CC(C)C)C(=O)N[C@@H](CCCCN)C(=O)N[C@@H](CCC(N)=O)C(=O)N[C@@H](CCC(=O)O)C(=O)N[C@@H](CCCNC(=N)N)C(=O)N[C@@H](CCC(N)=O)C(=O)N[C@@H](CCCCN)C(=O)N[C@@H](CCCCN)C(=O)N[C@@H](CCC(N)=O)C(=O)N[C@@H](CCCNC(=N)N)C(=O)N[C@@H](CCC(=O)O)C(=O)N[C@@H](CCC(N)=O)C(=O)N[C@@H](C)C(=O)N[C@@H](CCC(=O)O)C(=O)N[C@@H](CCCCN)C(=O)N[C@@H](CC(N)=O)C(=O)N[C@@H](CCCCN)C(=O)N[C@@H](CCC(N)=O)C(=O)N[C@H](C(=O)N[C@@H](CC(C)C)C(=O)N[C@@H](CCC(=O)O)C(=O)N[C@@H](CCC(N)=O)C(=O)N[C@H](C(N)=O)C(C)C)[C@@H](C)CC)[C@@H](C)CC)[C@@H](C)CC)C(C)C)C(C)C
In assay [1], B3 yielded an EC50 [nM] (cAMP) of 0.18 nM.

B4: SEQ ID NO 71 (peptide)
peptide: [NMeI]VLSLD[dV]PIKLK([γGlu-C16 diacid])KILLEQEKQKKQREQAETNEQILAQV-NH2
modifications: N-terminus assumed
SMILES: CC[C@H](C)[C@H](NC)C(=O)N[C@H](C(=O)N[C@@H](CC(C)C)C(=O)N[C@@H](CO)C(=O)N[C@@H](CC(C)C)C(=O)N[C@@H](CC(=O)O)C(=O)N[C@@H](C(=O)N1CCC[C@H]1C(=O)N[C@H](C(=O)N[C@@H](CCCCN)C(=O)N[C@@H](CC(C)C)C(=O)N[C@@H](CCCCNC(=O)CC[C@H](NC(=O)CCCCCCCCCCCCCCC(=O)O)C(=O)O)C(=O)N[C@@H](CCCCN)C(=O)N[C@H](C(=O)N[C@@H](CC(C)C)C(=O)N[C@@H](CC(C)C)C(=O)N[C@@H](CCC(=O)O)C(=O)N[C@@H](CCC(N)=O)C(=O)N[C@@H](CCC(=O)O)C(=O)N[C@@H](CCCCN)C(=O)N[C@@H](CCC(N)=O)C(=O)N[C@@H](CCCCN)C(=O)N[C@@H](CCCCN)C(=O)N[C@@H](CCC(N)=O)C(=O)N[C@@H](CCCNC(=N)N)C(=O)N[C@@H](CCC(=O)O)C(=O)N[C@@H](CCC(N)=O)C(=O)N[C@@H](C)C(=O)N[C@@H](CCC(=O)O)C(=O)N[C@H](C(=O)N[C@@H](CC(N)=O)C(=O)N[C@@H](CCC(=O)O)C(=O)N[C@@H](CCC(N)=O)C(=O)N[C@H](C(=O)N[C@@H](CC(C)C)C(=O)N[C@@H](C)C(=O)N[C@@H](CCC(N)=O)C(=O)N[C@H](C(N)=O)C(C)C)[C@@H](C)CC)[C@@H](C)O)[C@@H](C)CC)[C@@H](C)CC)C(C)C)C(C)C
Take B4: the EC50 [nM] (cAMP) in assay [1] was 0.21 nM. The “Emax (% I)” value with CRF1R receptor is -4%.

B5: SEQ ID NO 151 (peptide)
peptide: H-IVLSLD[dV]PIKLK([γGlu-C16 diacid])QILLKQERQKKQREQAEKNKQILEQV-NH2
SMILES: CC[C@H](C)[C@H](N)C(=O)N[C@H](C(=O)N[C@@H](CC(C)C)C(=O)N[C@@H](CO)C(=O)N[C@@H](CC(C)C)C(=O)N[C@@H](CC(=O)O)C(=O)N[C@@H](C(=O)N1CCC[C@H]1C(=O)N[C@H](C(=O)N[C@@H](CCCCN)C(=O)N[C@@H](CC(C)C)C(=O)N[C@@H](CCCCNC(=O)CC[C@H](NC(=O)CCCCCCCCCCCCCCC(=O)O)C(=O)O)C(=O)N[C@@H](CCC(N)=O)C(=O)N[C@H](C(=O)N[C@@H](CC(C)C)C(=O)N[C@@H](CC(C)C)C(=O)N[C@@H](CCCCN)C(=O)N[C@@H](CCC(N)=O)C(=O)N[C@@H](CCC(=O)O)C(=O)N[C@@H](CCCNC(=N)N)C(=O)N[C@@H](CCC(N)=O)C(=O)N[C@@H](CCCCN)C(=O)N[C@@H](CCCCN)C(=O)N[C@@H](CCC(N)=O)C(=O)N[C@@H](CCCNC(=N)N)C(=O)N[C@@H](CCC(=O)O)C(=O)N[C@@H](CCC(N)=O)C(=O)N[C@@H](C)C(=O)N[C@@H](CCC(=O)O)C(=O)N[C@@H](CCCCN)C(=O)N[C@@H](CC(N)=O)C(=O)N[C@@H](CCCCN)C(=O)N[C@@H](CCC(N)=O)C(=O)N[C@H](C(=O)N[C@@H](CC(C)C)C(=O)N[C@@H](CCC(=O)O)C(=O)N[C@@H](CCC(N)=O)C(=O)N[C@H](C(N)=O)C(C)C)[C@@H](C)CC)[C@@H](C)CC)[C@@H](C)CC)C(C)C)C(C)C
Molecule B5 showed an EC50 [nM] (cAMP) in assay [1] of 0.12 nM.
